Laboratory results from the DeepSol protein solubility set.

Assay: soluble on expression in E. coli; label from the status in PepcDB or PDB records

| Sequence | soluble on expression in E. coli |
| --- | --- |
| STNAEAVTVTNKQIIFPDYVTGFPKESDLKITTTTIDLRLPEGSTSVLVKNLYLSCDPYMRICMGKPDPLSSSLVPPYKTGVPIIGLGVSKVIDSGHPDYKKGDLLWGLVGWEEYSVITLTTYSHFKIEHTDVPLSYYTGLLGMPGMTAYAGFYEVCSPKKGETVFVSAASGAVGQLVGQFAKLMGCYVVGSAGSKEKVYLLKTKFGFDDAFNYKEEKDFSAALKRYFPEGIDIYFENVGGKMLDAVLINMKLHGRVAVCGMISQYNLVDPEGVHNLPTILYKRIQLQGFGVCDFYDKYPKFLDFVLPYIREGKITYVEDIAEGFESGPSALLGLFEGKNVGKQLFVVARE | soluble |
| MQGQHPPAELPSLRRQKILLLLERDGKVMAAELSRHFAVSEDTIRRDLAELDAGGLVQRVHGGALPRPKDSGKDYFTRVGETNEAKLRLAQYAVQWVQDGQTVLFDSGSTTLHIAQSLPAGISLTAVTASPMIAVALAEYPKVRVILAGGQLNPATLSASGHEALRMIQGIKADLMFTGVCAIHPEIGISSLHFDEVPIKQAMFDSASEVIAVTTADKLGAMEPFVVVPCNRLHRLVTEQEAPGVDIEGYRQLGIEVLQVLEHHHHHH | not soluble |
| MGHHHHHHSHMLEPQENGVIDLPDYEHVEDETFPPFPPPASPERQDGEGTEPDEESGNGAPVPVPPKRTVKRNIPKLDAQRLISERGLPALRHVFDKAKFKGKGHEAEDLKMLIRHMEHWAHRLFPKLQFEDFIDRVEYLGSKKEVQTCLKRIRLDLPILHEDFVSNNDEVAENNEHDVTSTELDPFLTNLSESEMFASELSRSLTEEQQRRIERNKQLALERRQAKLLSNSQTLGNDMLMNTPRAHTVEEVNTDEDQKEESNGLNEDILDNPCNDAIANTLNEEETLLDQSFKNVQQQLDATSRNITEAR | soluble |
| MGSDKIHHHHHHMRLAFFGDVHGNFEALKAVLEDMENKGVDEVFCLGDLVGYGPDPEAVVQTIMEKNIKTIMGNYDDAVGYSKESCGCSYAPGRETEVGDISLKWSIENTSEKTREFLRNLPKKLSFEVEGVRFLLVHGSPLNELLEYVKPNTPPDRLKKIVESVEENVVVNGHTHLPMVKWVMGKLVLNPGSAGRPKDGDPRASYMIVDVENGTVSFEIVRVRYDVKTTVEKIARNGLPVELATVLALGQTFDMGPGKVTFTLGR | not soluble |
| VNVLKKDITASPVLSETAPTSAPSEAAAANEIKQPIPSQKAEMSELKKLTDIISPELIEPNLVGETSDDIIDELIQKLSRRGALLSESGFKQAILNREQQGTTAIGMNIAIPHGKSEAVREPSVAFGIKRSGVDWE | not soluble |
| SVLVLDDRIVDAATKDLYVNGFQEEIQYQNPTPENLQHMFHQGIEILDSARMINVTHLALWKPSSFKLGNPVDFALDDNYDTFWQSDGGQPHQLDIMFSKRMDICVMAIFFSMIADESYAPSLVKVYAGHSPSDARFYKMLEVRNVNGWVALRFLDNREDDQLLKCQFIRLLFPVNHENGKDTHLRGIRLYVPSNEPHQDTHEWAQTLPETNNVFQDAILR | soluble |
| PRAAGHSEEVLEREASFSLTTIDGEVISLNNVGGDVVILWFMAAWCPSCVYMADLLDRLTEKYREISVIAIDFWTAEALKALGLNKPGYPPPDTPEMFRKFIANYGDPSWIMVMDDGSLVEKFNVRSIDYIVIMDKSSNVLYAGTTPSLGELESVIKSVQGG | soluble |
| NVSVLNFGNTPVSFRQDGFLNATAIASHFGKLPKDYLKSEQTQQYISALAENLSVRRKILTEANQIVIVKRGGSEQGTWLHPKLAIHFARWLNPKFAVWCDEQIEILLNGKISDGI | soluble |
| MKYFQEADIAVTVCDKTGKIIDMNEQSRQVNLKPGQELIGSNVLDCHPEPARSMLEEMMRQERKHVYTIEKNGRKKLIYQIPWYEKGEYMGFLELSMVIPFEMEHKIRTPKPAND | not soluble |
| MGSDKIHHHHHHMFREDRKGLIVVEVENQDLIKTIQVKFPRLSKGQKLIAEYILKHYDKAAFLTAAKLGSSVGVSESTVVRFANELGFSGYPKLQKALQELIKNKLTTVQRIELSNDFIDQESTLKSVLKSDMENIRYTLEKINHKTFDDVVDSIFSAKRIYILGLRSSTPIAEFLGFYLNLILDNAKIISYGVSDIFEQMMNVAKGDLVIGIGFPRYAARTIEALDYAQNNEATVVAITDSLLSPLAARANHTLIAQSNMASFVDSLVAPLSVVNALIIAVGLREKDKISSTFSKLEHIWQEYEVYSYKERRRD | not soluble |
| MSDTPAQTPEPSKKTPEPSGVDLARVALRAAKEQARARGDAAQQKRQARRGGLRSGARADGRDPMALGAAINRLLTERGWETPAAVGGVMGRWPQIVGEDLAKHCVPQRYDEDERVLTVQCDSTAWATQLRLLAPQLVARLNEDLGHGTVRLLKVQGPGGPARRYGPLRAPGSTGPGDTYG | not soluble |
| RHLCESRQQAQRWIRAGAVHVNHIPIDKPGTLVAVDATIQVKAKPAYVSRGGEKLAHALGVFPVVVRDRVCLDGGISTGGFTDCLLQAGAQLVYGIDVGYGQVDWKLRQDPRLILRERTNLRYLTPADLYTDDGPRPDLGVVDVSFISLTKVLPALWELLLPPRELIALIKPQFEVGRDRLGKNGVVRDAKARQEAVDQVITAAAALGWQCYGVTPSPILGPAGNQEFLAHFCCGANGVLENEMVS | not soluble |
| MQVFDLSVDGATTIDIGASTGGFTDVMLQNSAKLVFAVDVGTNQLAWKLRQDPRVVSMEQFNFRYAEKTDFEQEPSFASIDVSFISLSLILPALHRVLADQGQVVALVKPQFEAGREQIGKNGIIRDAKVHQNVLESVTAMAVEVGFSVLGLDFSPIQGGHGNIEFLAYLKKEKSASNQILAEIKEAVERAHSQFKNE | not soluble |
| MKKYTLIATAPMGIEAVVAKEVRDLGYECKVDNGKVIFEGDALAICRANLWLRTADRIKVQVASFKAKTFDELFEKTKAINWRSFIPENGKFPVIGKSVKSTLASVPDCQRIVKKAIVEKLKLQSGKANDWIEETGAEYKVEISLLKDQALITLDSSGTGLHKRGYRVDQGGAPIKETLAAALVQLTNWTPDRPFVDPFCGSGTIAIEAALIGQNIAPGFNRDFVSEDWEWIGKDLWNKARLEVEEKANYDQPLTIFASDIDHRMVQIAKENAEEAGLGDLIQFKQMQVKDFTTNLEFGVIVGNPPYGERLGEKKAVEQMYKEMGQAFEPLDTWSVYMLTSNENFEEAYGRKATKKRKLFNGFIKTDYYQYWSKVRPQRKKTENA | not soluble |
| MGSDKIHHHHHHMLDIHWLKTFVTLAEHKHFGKAATALHMTQPNVSLHIKQLEQSTRVKLIDRNPFRLTQAGFRLLESSQKTLMELQICQADLNAINDLSQGTLTIAASDIISRLLLIQPFQLFKAEFPGIDFSLLNTTSSQASELVKNAEADLGFVIAQKESQPLHFTELQQIKWCAIGDNLQQWQQANLSVDTPLAEQPTLILLGHDTRTRELLDPALPSLNLPNYRIMEVGSVDAQIDWAEAGFGVAIVPEFSVYTKANLTTKVTPLPQFPTTSLGYIVRQNQILSKAIKQLLYWVNQEIIRSQR | not soluble |
| MFLDMLSLIRGQKIKLNDALQGQSSFYIQIHYQAAFDLDIASFGLDSQYRLSDERYMTFYNQPETPCQAVRLIENQNKCSRFLVDLAKLPATIQHLVLTAAIDGQNIMSQLQQVTVQILNLQLQPIAELKLDASIFDQERATMLIEIYRKEGIWRLAAIGQGFNAGLAALIQHFGGEVAEEPTAQQTTPVAPQSNIDLKKKLSLQKAEKTGNASIIDLTKKSLVQLEKKKLLGVTARVALVLDASGSMDGQYRRGDVQKVVNRLMPLAIHFDDDGSFECWAFAAETTQLDDVTLSNVNDFINSTQRGWKNWQVGARYNEEIPAIEAVINYFQKFQDQIPTYVLFISDGGVGSRRQMQKILSQAAKLPIFWQFVGIGGRNYGALEKLDEMSGRIVDNCNFFSLDRIDGVSDERLYELLLQEFPDWLIAARQHQIVRNLEHHHHHH | not soluble |
